Laboratory results from patent publication US5427937.

Target: purified human coagulation factor Xa (human) (UniProt P00742)

Substance: crude soluble hookworm protein extract (Ancylostoma caninum adult worms) (pool or library)
- factor Xa activity (chromogenic assay, hydrolysis of Chromozym X): 50 % reduction
